According to the supplement of paper PMC6757056:
± gives the standard deviation of the averaged measurements.

B1: library; a variant is named by its letters at N, in order (parent)
chain: GCUGUCACCGGUGCUUGGUACGUUAUAUUCAGCCGGUCUGAUGAGUCUNNNNNNAGACGAAACAGC

What was measured:
(6R,S)-folinic acid [1] = variants of: B1; assay: FACS-Seq fitted mean relative fluorescence mCherry/BFP without ligand (log10 relative fluorescence); HEK293T overexpressing SLC46A1; higher = higher reporter protein expression; conditions: without (6R,S)-folinic acid; ligand present: no
Procedure: (§1)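 Hammerhead (sTRSV) ribozyme switch libraries with a ligand aptamer grafted on stem I and a randomized N4-6 loop II, cloned into the 3' UTR of mCherry and transiently transfected into HEK293T cells; RNA-Seq 72 h post transfection with ligand added 1 h before transfection; RNA read count / plasmid DNA read count normalized to the non-cleaving sTRSVctl (x100), log10; sequences with >100 DNA reads. FACS-Seq: lentiviral library sorted into 6 bins after 48 h ligand, log-normal fit mean of mCherry/BFP scaled to controls. Printed sequences are partial switch sequences.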

(6R,S)-folinic acid [2] = variants of: B1; assay: normalized RNA/DNA level without ligand (relative to sTRSVctl = 100) (log10 (% of sTRSVctl)); HEK293T overexpressing SLC46A1; higher = less ribozyme self-cleavage, higher mRNA level; conditions: without (6R,S)-folinic acid; ligand present: no
Procedure: as §1

(6R,S)-folinic acid [3] = variants of: B1; assay: FACS-Seq fitted mean relative fluorescence mCherry/BFP with ligand (log10 relative fluorescence); HEK293T overexpressing SLC46A1; ligand concentration (+) FACS-Seq: 6 mM; higher = higher reporter protein expression; conditions: with (6R,S)-folinic acid; ligand present: yes
Procedure: as §1

(6R,S)-folinic acid [4] = variants of: B1; assay: normalized RNA/DNA level with ligand (relative to sTRSVctl = 100) (log10 (% of sTRSVctl)); HEK293T overexpressing SLC46A1; ligand concentration (+) RNA-Seq: 6 mM; higher = less ribozyme self-cleavage, higher mRNA level; conditions: with (6R,S)-folinic acid; ligand present: yes
Procedure: as §1

Variant	FACS-Seq fitted mean (log10) ((6R,S)-folinic acid [1])	normalized RNA/DNA level without ligand (log10) ((6R,S)-folinic acid [2])	FACS-Seq fitted mean (log10) ((6R,S)-folinic acid [3])	normalized RNA/DNA level with ligand (log10) ((6R,S)-folinic acid [4])
AAAGUG	-0.0552 ± 0.019	1.675 ± 0.0049	0.25 ± 0.14	1.95 ± 0.031
AAAGUC	0.0964 ± 0.057	2.066 ± 0.014	0.235 ± 0.08	2.03 ± 0.047
AAACCA	0.226 ± 0.23	2 ± 0.01	0.0655 ± 0.071	2 ± 0.03
UAAGCG	0.384 ± 0.026	1.736 ± 0.0051	0.777 ± 0.031	1.96 ± 0.045
UAAGCA	0.463 ± 0.0091	1.9355 ± 0.00085	0.377 ± 0.12	1.99 ± 0.021
UAAGCU	0.334 ± 0.089	1.992 ± 0.014	0.436 ± 0.13	2.021 ± 0.0075
AACAAU	0.338 ± 0.22	1.935 ± 0.0082	0.122 ± 0.3	1.97 ± 0.039
AACAAC	-0.0136 ± 0.067	2.028 ± 0.006	-0.491 ± 0.14	2.02 ± 0.024
AACAAA	0.414 ± 0.011	1.967 ± 0.017	0.365 ± 0.15	1.99 ± 0.021
AACAAG	0.152 ± 0.031	1.923 ± 0.0084	0.113 ± 0.2	2.02 ± 0.036
AAAUUU	0.415 ± 0.0088	2.053 ± 0.0076	0.218 ± 0.093	2.05 ± 0.039
AAAUUC	0.629 ± 0.14	2.03 ± 0.0039	0.471 ± 0.059	2.018 ± 0.016
AAAUUG	0.0771 ± 0.044	1.921 ± 0.0078	0.102 ± 0.18	2.02 ± 0.061
AAAAAA	0.489 ± 0.019	1.948 ± 0.013	0.43 ± 0.029	1.97 ± 0.036
AAAAAU	0.39 ± 0.039	1.944 ± 0.011	0.512 ± 0.13	1.99 ± 0.029
AAAAAC	0.164 ± 0.051	1.985 ± 0.015	-0.16 ± 0.076	1.99 ± 0.034
AAAAAG	0.431 ± 0.18	1.914 ± 0.0037	0.605 ± 0.12	2 ± 0.045
GAACCU	-0.507 ± 0.14	2.02 ± 0.0076	-0.0321 ± 0.22	2.02 ± 0.04
CAAGAG	0.355 ± 0.047	1.903 ± 0.013	0.365 ± 0.14	1.98 ± 0.024
CAAGAA	0.425 ± 0.21	1.95 ± 0.0095	0.427 ± 0.2	2 ± 0.024
UAACGC	0.334 ± 0.0089	1.993 ± 0.008	0.0549 ± 0.066	2.02 ± 0.045
UAACGG	0.142 ± 0.02	1.705 ± 0.011	0.534 ± 0.11	1.95 ± 0.034
UAACGA	0.256 ± 0.05	1.93 ± 0.0022	0.34 ± 0.11	2.01 ± 0.036
AAAUAU	0.147 ± 0.058	1.949 ± 0.002	0.275 ± 0.077	2 ± 0.039

Variant	FACS-Seq fitted mean (log10) ((6R,S)-folinic acid [1])	normalized RNA/DNA level without ligand (log10) ((6R,S)-folinic acid [2])	FACS-Seq fitted mean (log10) ((6R,S)-folinic acid [3])	normalized RNA/DNA level with ligand (log10) ((6R,S)-folinic acid [4])
AAAUAC	0.31 ± 0.028	1.988 ± 0.0076	0.0315 ± 0.22	2 ± 0.03
AAAUAG	-0.0965 ± 0.1	1.903 ± 0.006	-0.332 ± 0.53	1.98 ± 0.022
AAAUAA	0.0525 ± 0.017	1.94 ± 0.023	0.383 ± 0.051	1.98 ± 0.038
CAAUAG	0.376 ± 0.018	1.942 ± 0.0058	0.641 ± 0.16	2.011 ± 0.0065
CAAUAA	0.248 ± 0.034	1.934 ± 0.017	0.463 ± 0.091	1.97 ± 0.031
GACAAC	0.378 ± 0.076	1.987 ± 0.0049	0.472 ± 0.21	2.004 ± 0.013
GACAAA	0.367 ± 0.089	1.974 ± 0.0039	0.306 ± 0.081	2.007 ± 0.019
CACACA	0.66 ± 0.12	1.97 ± 0.026	0.319 ± 0.036	1.98 ± 0.031
CAAGGA	0.62 ± 0.052	1.981 ± 0.019	0.722 ± 0.17	1.99 ± 0.052
CAAGGG	-0.428 ± 0.17	1.88 ± 0.02	-0.164 ± 0.057	1.99 ± 0.013
GAACAA	0.694 ± 0.2	1.976 ± 0.013	0.571 ± 0.25	2 ± 0.033
GAACAG	0.808 ± 0.1	1.959 ± 0.0099	0.638 ± 0.1	2.01 ± 0.03
CAAACC	0.546 ± 0.013	2.024 ± 0.0088	0.377 ± 0.2	2.02 ± 0.038
CAAACU	0.433 ± 0.064	2.01 ± 0.027	0.667 ± 0.16	2.01 ± 0.029
AAAGAA	0.282 ± 0.14	1.923 ± 0.011	0.569 ± 0.098	1.99 ± 0.037
AAAGAG	0.224 ± 0.031	1.617 ± 0.0032	0.316 ± 0.22	1.93 ± 0.049
AAAGAU	0.433 ± 0.025	1.9288 ± 0.0013	0.44 ± 0.027	2 ± 0.032
AAAGAC	0.42 ± 0.029	1.98 ± 0.0069	0.38 ± 0.23	2.01 ± 0.028
GAAAUA	0.624 ± 0.015	2.008 ± 0.007	0.26 ± 0.23	2.02 ± 0.038
GAAAUG	0.4312 ± 0.0042	1.954 ± 0.012	0.551 ± 0.067	2.03 ± 0.043
CAAGUU	0.055 ± 0.13	2 ± 0.021	0.00566 ± 0.18	2.03 ± 0.046
UAAAAG	0.335 ± 0.03	1.7583 ± 0.00058	0.493 ± 0.023	1.96 ± 0.049
UAAAAU	0.0871 ± 0.034	1.941 ± 0.016	0.075 ± 0.078	1.97 ± 0.036
UAAAAC	0.386 ± 0.024	1.973 ± 0.0055	0.499 ± 0.15	1.98 ± 0.028

Variant	FACS-Seq fitted mean (log10) ((6R,S)-folinic acid [1])	normalized RNA/DNA level without ligand (log10) ((6R,S)-folinic acid [2])	FACS-Seq fitted mean (log10) ((6R,S)-folinic acid [3])	normalized RNA/DNA level with ligand (log10) ((6R,S)-folinic acid [4])
UAAAAA	0.254 ± 0.059	1.9232 ± 0.0015	0.164 ± 0.11	1.98 ± 0.024
GACACA	0.265 ± 0.028	1.99 ± 0.02	0.656 ± 0.046	2 ± 0.037
AAAUGA	0.485 ± 0.018	1.963 ± 0.005	0.406 ± 0.022	2.04 ± 0.044
AAAUGG	0.445 ± 0.096	1.87 ± 0.0028	0.499 ± 0.072	2 ± 0.031
AAAUGC	0.594 ± 0.028	2.03 ± 0.007	0.713 ± 0.3	2.03 ± 0.033
GAAGAC	0.635 ± 0.035	1.97 ± 0.0057	0.574 ± 0.24	2.03 ± 0.025
GAAGAA	-0.708 ± 0.014	1.973 ± 0.0039	-0.827 ± 0.004	2.03 ± 0.04
GAAGAU	0.124 ± 0.065	1.968 ± 0.0035	0.379 ± 0.13	2.03 ± 0.032
GAAGAG	0.0515 ± 0.088	1.837 ± 0.0055	0.356 ± 0.15	2.03 ± 0.034
UAACAC	0.349 ± 0.11	2.008 ± 0.0029	0.223 ± 0.22	2.01 ± 0.046
UAACAA	0.381 ± 0.053	1.95 ± 0.02	0.18 ± 0.0065	2 ± 0.037
UAACAG	0.325 ± 0.2	1.829 ± 0.015	0.463 ± 0.16	1.952 ± 0.017
GAAAAC	0.181 ± 0.013	1.948 ± 0.0025	0.078 ± 0.11	1.98 ± 0.034
GAAAAG	0.162 ± 0.24	1.94 ± 0.0028	-0.223 ± 0.13	2 ± 0.032
GAAAAU	0.553 ± 0.091	1.9868 ± 0.0018	0.647 ± 0.21	2.02 ± 0.022
CAAAAU	-0.131 ± 0.018	1.955 ± 0.0057	-0.505 ± 0.1	1.98 ± 0.032
CAAAAC	0.474 ± 0.076	1.9999 ± 0.0015	0.589 ± 0.49	1.99 ± 0.055
UAAGGA	0.0731 ± 0.084	1.85 ± 0.026	0.217 ± 0.0071	1.997 ± 0.018
UAAGGG	-0.0665 ± 0.0016	1.601 ± 0.002	0.263 ± 0.16	1.92 ± 0.025
GAAACU	0.175 ± 0.071	2.004 ± 0.0055	0.437 ± 0.016	2.001 ± 0.019
UAAUGU	0.615 ± 0.038	1.896 ± 0.0068	0.695 ± 0.092	2 ± 0.055
UAAUGA	0.29 ± 0.014	1.872 ± 0.006	0.227 ± 0.042	2 ± 0.022
UAAUGC	0.147 ± 0.059	1.946 ± 0.017	0.234 ± 0.13	1.98 ± 0.032
